{"source": "paper PMC9489475", "about": "(Nature structural & molecular biology, 2022)", "molecular_target": "the molecule itself", "test": "cryo-EM structure"}
{"protein": "band 3 (native, full-length, from human erythrocyte membrane) (natural protein, human (endogenous in red blood cells), UniProt P02730 1-911, looked up, N-glycan site N642 (N-acetylglucosamine modelled close to N642)) MEELQDDYEDMMEENLEQEEYEDPDIPESQMEEPAAHDTEATATDYHTTSHPGTHKVYVELQELVMDEKNQELRWMEAARWVQLEENLGENGAWGRPHLSHLTFWSLLELRRVFTKGTVLLDLQETSLAGVANQLLDRFIFEDQIRPQDREELLRALLLKHSHAGELEALGGVKPAVLTRSGDPSQPLLPQHSSLETQLFCEQGDGGTEGHSPSGILEKIPPDSEATLVLVGRADFLEQPVLGFVRLQEAAELEAVELPVPIRFLFVLLGPEAPHIDYTQLGRAAATLMSERVFRIDAYMAQSRGELLHSLEGFLDCSLVLPPTDAPSEQALLSLVPVQRELLRRRYQSSPAKPDSSFYKGLDLNGGPDDPLQQTGQLFGGLVRDIRRRYPYYLSDITDAFSPQVLAAVIFIYFAALSPAITFGGLLGEKTRNQMGVSELLISTAVQGILFALLGAQPLLVVGFSGPLLVFEEAFFSFCETNGLEYIVGRVWIGFWLILLVVLVVAFEGSFLVRFISRYTQEIFSFLISLIFIYETFSKLIKIFQDHPLQKTYNYNVLMVPKPQGPLPNTALLSLVLMAGTFFFAMMLRKFKNSSYFPGKLRRVIGDFGVPISILIMVLVDFFIQDTYTQKLSVPDGFKVSNSSARGWVIHPLGLRSEFPIWMMFASALPALLVFILIFLESQITTLIVSKPERKMVKGSGFHLDLLLVVGMGGVAALFGMPWLSATTVRSVTHANALTVMGKASTPGAAAQIQEVKEQRISGLLVAVLVGLSILMEPILSRIPLAVLFGIFLYMGVTSLSGIQLFDRILLLFKPPKYHPDVPYVKRVKTWRMHLFTGIQIICLAVLWVVKSTPASLALPFVLILTVPLRRVLLPLIFRNVELQCLDADDAKATFDEEEGRDEYDEVAMPV", "values": [{"measurement": "stoichiometry N", "value": 2}]}
